The results in this text go back to paper doi:10.1101/2023.03.13.532366.

For the assay, the target named is biotinylated mIL-12 (mIL-12a-AviTag-His6 and untagged mIL-12b) (mouse) (UniProt P43431). In words: BLI. On the technique in general: In BLI a coated tip is dipped into the sample, and binding shifts an interference pattern.
Chain of biotinylated mIL-12 (mIL-12a-AviTag-His6 and untagged mIL-12b) (mouse) (P43431 23-215, chain 1 of 2): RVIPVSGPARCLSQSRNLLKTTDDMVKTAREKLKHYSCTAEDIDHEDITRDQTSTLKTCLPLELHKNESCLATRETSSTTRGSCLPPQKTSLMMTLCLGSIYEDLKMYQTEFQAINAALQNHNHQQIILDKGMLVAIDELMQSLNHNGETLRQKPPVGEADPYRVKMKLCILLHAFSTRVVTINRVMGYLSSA
Chain of biotinylated mIL-12 (mIL-12a-AviTag-His6 and untagged mIL-12b) (mouse) (P43432 23-335, chain 2 of 2, further chain): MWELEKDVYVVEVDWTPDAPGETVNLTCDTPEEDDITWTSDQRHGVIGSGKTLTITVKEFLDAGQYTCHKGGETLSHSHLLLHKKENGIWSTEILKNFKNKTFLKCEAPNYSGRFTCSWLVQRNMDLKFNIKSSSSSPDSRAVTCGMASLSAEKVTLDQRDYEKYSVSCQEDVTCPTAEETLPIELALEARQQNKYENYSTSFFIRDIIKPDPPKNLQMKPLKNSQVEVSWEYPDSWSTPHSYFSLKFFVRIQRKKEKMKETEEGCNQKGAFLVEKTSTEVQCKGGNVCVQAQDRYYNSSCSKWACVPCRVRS

Chain of mIL-12Rβ1_(D1-D2) (from mIL-12Rβ1_(D1-D2)-CASP3-AviTag-His6), analyte in BLI (domain or fragment) (Q60837 20-738): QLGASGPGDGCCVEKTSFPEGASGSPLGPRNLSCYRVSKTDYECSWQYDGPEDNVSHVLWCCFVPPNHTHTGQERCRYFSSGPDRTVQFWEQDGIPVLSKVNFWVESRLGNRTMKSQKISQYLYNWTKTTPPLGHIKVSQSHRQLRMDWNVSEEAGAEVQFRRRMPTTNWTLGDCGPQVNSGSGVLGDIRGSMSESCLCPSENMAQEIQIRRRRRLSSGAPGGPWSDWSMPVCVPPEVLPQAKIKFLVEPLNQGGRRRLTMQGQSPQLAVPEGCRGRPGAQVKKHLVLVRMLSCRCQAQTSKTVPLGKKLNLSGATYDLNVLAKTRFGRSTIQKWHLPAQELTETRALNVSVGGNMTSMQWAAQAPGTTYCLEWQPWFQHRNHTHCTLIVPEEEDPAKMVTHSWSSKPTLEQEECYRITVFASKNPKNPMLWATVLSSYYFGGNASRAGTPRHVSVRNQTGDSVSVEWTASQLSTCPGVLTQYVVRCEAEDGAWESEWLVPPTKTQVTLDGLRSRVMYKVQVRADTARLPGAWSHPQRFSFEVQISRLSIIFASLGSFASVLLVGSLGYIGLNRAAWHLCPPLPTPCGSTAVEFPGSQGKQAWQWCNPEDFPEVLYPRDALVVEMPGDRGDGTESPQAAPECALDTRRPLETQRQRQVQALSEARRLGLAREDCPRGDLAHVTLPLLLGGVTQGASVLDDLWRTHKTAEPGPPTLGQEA

As to “mIL-12Rβ1_(D1-D2) (from mIL-12Rβ1_(D1-D2)-CASP3-AviTag-His6), analyte in BLI (domain or fragment)”, the fold higher affinity than the human counterparts (hIL-12 for hIL-12Rβ1) worked out at 10 fold.
